This is an account of results in US8524227B2, “Anti-IL-TIF antibodies” (ZymoGenetics, Inc., priority 2002, dated 2013).

In assay [1] the test system is BaF3 wild type cells. Kind of assay: Alamar Blue proliferation assay, BaF3 wild type cells. Type of assay: cell-based, murine. (In general: Resazurin is reduced to fluorescent resorufin, in cell work by metabolically active cells.)
Assay [2] concerns BaF3/CRF2-4 cells. The assay can be described thus: Alamar Blue proliferation assay, BaF3/CRF2-4 cells. The class given is cell-based, murine.
Assay [3] has as its target T1, CRF2-4/zcytor11 heterodimeric receptor (Homo sapiens, UniProt Q08334+Q8N6P7, R518G).
T1 construct: BaF3 cells expressing the full-length CFR2-4 receptor were constructed; expressed in transfected cells
T1 sequence (Q8N6P7 16-574 R518G): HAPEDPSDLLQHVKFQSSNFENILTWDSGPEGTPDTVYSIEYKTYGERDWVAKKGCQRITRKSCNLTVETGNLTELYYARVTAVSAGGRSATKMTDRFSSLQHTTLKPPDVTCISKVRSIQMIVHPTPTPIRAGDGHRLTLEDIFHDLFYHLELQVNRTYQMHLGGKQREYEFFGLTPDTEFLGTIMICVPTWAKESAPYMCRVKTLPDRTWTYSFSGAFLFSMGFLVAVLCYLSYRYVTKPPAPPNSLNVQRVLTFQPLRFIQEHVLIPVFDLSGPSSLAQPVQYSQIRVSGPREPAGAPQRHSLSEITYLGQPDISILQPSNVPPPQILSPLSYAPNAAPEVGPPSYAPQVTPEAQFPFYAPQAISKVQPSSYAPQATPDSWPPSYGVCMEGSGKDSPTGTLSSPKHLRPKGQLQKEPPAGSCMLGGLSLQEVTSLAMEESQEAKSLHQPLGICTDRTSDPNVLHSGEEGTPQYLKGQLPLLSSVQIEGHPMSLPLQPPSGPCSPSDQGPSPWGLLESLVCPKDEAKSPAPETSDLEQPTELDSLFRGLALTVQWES
T1 sequence (Q08334 20-325): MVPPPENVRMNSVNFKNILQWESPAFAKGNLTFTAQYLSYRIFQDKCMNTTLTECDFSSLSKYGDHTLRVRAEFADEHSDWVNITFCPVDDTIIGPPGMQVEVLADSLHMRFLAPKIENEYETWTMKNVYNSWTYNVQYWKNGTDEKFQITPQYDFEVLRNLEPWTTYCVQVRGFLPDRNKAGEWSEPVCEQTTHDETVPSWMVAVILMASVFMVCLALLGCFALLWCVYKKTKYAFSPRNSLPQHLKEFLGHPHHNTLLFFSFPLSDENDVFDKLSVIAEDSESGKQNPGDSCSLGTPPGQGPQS
The assay can be described thus: Alamar Blue proliferation assay, BaF3/CRF2-4/zcytor11 cells. Type of assay: cell-based. As to conditions: 50 ng/ml IL-TIF-CEE. The protocol: BaF3/CRF2-4/zcytor11 cells were spun down and washed in the complete media, described in Example 21A above, but without mIL-3 (hereinafter referred to as “mIL-3 free media”). The cells were spun and washed 3 times to ensure the removal of the mIL-3 Cells were then counted in a hemacytometer. Cells were plated in a 96-well format at 5000 cells per well in a volume of 100 μl per well using the mIL-3 free media.
Proliferation of the BaF3/CRF2-4/zcytor11 cells was assessed using IL-TIF-CEE protein diluted with mIL-3 free media to 50, 10, 2, 1, 0.5, 0.25, 0.13, 0.06 ng/ml concentrations. 100 μl of the diluted protein was added to the BaF3/CRF2-4/zcytor11 cells. The total assay volume is 200 μl. […] Alamar Blue gives a fluourometric readout based on number of live cells, and is thus a direct measurement of cell proliferation in comparison to a negative control. […] Plates were read on the Finax™ plate reader (Molecular Devices Sunnyvale, Calif.) using the SoftMax™ Pro program, at wavelengths 544 (Excitation) and 590 (Emmission). […] The response, as measured, was approximately 15-fold over background at the high end of 50 ng/ml down to a 2-fold induction at the low end of 0.06 ng/ml. […]
IL-TIF protein (SEQ ID NO:3) was diluted to 200 pg/ml in mIL-3 free media. […] Plates were read on the Wallac Victor 2 1420 Multilabel Counter (Wallac, Turku, Finland) at wavelengths 530 (Excitation) and 590 (Emmssion). […]

B1: IL-TIF-CEE: IL-TIF polypeptide containing C-terminal GluGlu (EE) tag, purified from BHK 570 cells (protein)
chain: APISSHCRLDKSNFQQPYITNRTFMLAKEASLADNNTDVRLIGEKLFHGVSMSERCYLMKQVLNFTLEEVLFPQSDRFQPYMQEVVPFLARLSNRLSTCHIEGDDLHIQRNVQKLKDTVKKLGESGEIKAIGELDLLFMSLRNACIEYMPME
With B1, the “proliferation in response to IL-TIF-CEE” value in assay [1] and in assay [2] was “did not proliferate” throughout. In assay [3], the “proliferative response over background” value was “approximately 15 fold”.
